In the domain aggregation screens of Martell et al. (2025):

experiment: soluble fraction after stress (log2 fold change); higher = more stays soluble; pooled small domains, quantitative proteomics; conditions: stress: 50 degC
In short: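 After stress at 50°C, the amount of each protein still soluble was measured. This was done on pooled custom libraries of small protein domains, using high-throughput quantitative proteomics. The figure given is a base-two log fold change and stands for aggregation propensity, with higher values meaning more protein stays in solution.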

Sequence	soluble fraction (log2)
HMNKVQTFIIEKHIKEVFEHTNRTYYRSGQYYFQTRDEFSMALKRFLKDREPNKKNWIDSIINRA	-0.298
HMTNYREILRLRSLGLNHSRIAESMGISRPTVIAALQRAQTQELNWQAAESLSDIDLAQRLNP	-0.395
HMEDNLVTYPNPTSDYIYVSKKVDLTVVNMLGDILIQKQNINVLDVTELTPGMYTIVIRYNNVTTNKRIIK	-0.372
HMVKDYIQVTVNKEPVILKGKKDYIFIDIFNYIEFDLTIPKGSLYLLLNGKNAGYHDKLLDGDVIELGW	-1.72
HMRDQAIDIYKTVHSVAEPYKEVFLLRVLGELSFKEISHIFGKSESWAKVTFFRAKIKVVEKREES	-3.74
HMYDDLEPFDANGRLRWSDKELILAFGRHRGVTLQTLELNDPGYLRWLLSGNGPLEQQDRKRLEDILES	-1.27
HMRGQLADLWLPREQARRAAEIVAARPVPLGSVKTWIARGKLAPRKTGTGPALYRVGALVSLLAKS	-1.67
HMSLSEGVSADVVADVQARLMELGYMDEDDPDGNFSESTRIAVEHFQQQAGLPVTGTVDKATLDALNSPD	0.0669
HMIDSEEVMETIQDLGYSPVFDVKEKFYKIKEEQIGKITLEVHIILRYGMVDLVWIVRENGELLLG	0.138
HMKTLDAFFDQARDAYKKLKKDGDIDNLKVLRNQLQTVRETQGDAVRKKSKEEYRRLVDIIDDIDGLLAAF	-0.102
HMPGLSQAEAQSLLIAYLAQQGRTLELIPLGQSGDVWRFSGRESDGTVVSFFMVSRTDGTISEVPVPP	-0.62
HMGITMFGQNLKKLRTSKNLSQSKLSKILGISSSTIGMYEQGRRFPDQTILTKIADFFDVSTDYLLGR	-0.268
HMNPESRRSELIDAATKLFFSRGYTATSIRDILDAVDDRTASPSVFYYYFESKEAIYQAVLQRYTD	-2.03
HMTILKEGMSGPEVERLQDALKRHGFDPGRVDGQFGPGTEAAILAFQKSEGLRADGVAGPKTQQALGLE	0.131
HMEQGDTQQEIREKILNLLADGERHMITELKNIRTDQPIDDDKIVGKTLKTLLDEEEVYMDGSYIQLNG	0.259
HMEIFYSARAWAKLNDLVATRTYLQHLGAIAGRIGRSEGLSPDRIPDGRDGAVNGWPLWVWDRAYAEVS	-2.89
HMSNPPLPFLAKTKVSWTGEQDGDLGFLENEVVKVFHVVDELWWQGSLSRNGAEGIFPRDFVEVISAP	-1.8
HMLGSQQAYTDALRLTGLPVDIEVIESDRLPFLIPMRYSLDQHLIEVNVRYPDTRAIRVQQMVEELFHA	-0.624
HMSPVPRIEIELTSSKEDGSWTWRAVGAREPRGSLDGALLAKPAAVGDVLRVETDQFLDGMTVTAILPPRD	-0.325
HMSNETLFEFFEKNISQLTPTLVDNINRSLAVHSKKNVKLAIMIAAKSNVRNWNYISAILNRWEKE	-2.21
HMIPSEQYNTALTEIGLSTRAHNSLRRAGIMTLGQLIEKTRDGLPPLPGFGDKSQVEVQDLLTGLGYPI	-0.203
HMSEKAQSENEDLIKILALLIHAAKIDENYSEKEKKLIISFAEMSSNKKLDREQINSLVDKAEQYEK	-0.17
HMDKVVGSAGDVTSRITANSGEVKIDGQIWQARSYDETIAIEAGEKIEVFDLDGITLIVYPI	-0.604
HMQFLGKVTVTHARQANLRAQPSMDAAIVGKVNPGEVYNVVSIPKTSWYEIQLQNGKTVFIAAGMVSFRM	-0.557
HMEGRHFRILYILLNNERVTAPELAEEFGVSVRTIYRDIDTMSAAGIPIYMQGGRKGGIYLLEGY	-1.16
HMLHPLLWAVDEPTPVTVRTRPEYVPDVVRWLMQPESQREHDGVVDLRYTVTHRAAFRSRIYVLGTRVTIP	-0.112
HMVDEAQSLERNVLLTVLSRIGRDSRVVLTHDIAQRDNLRVGRHDGVVAVVDRLKGHPLFAHVTL	0.012
HMVTARMPDLFGLDEATAQRMVSNAGLTLKTEYAYSDQAEGYVFDQTPEANAEVRRGGTVTAMIS	0.0381

Sequence	soluble fraction (log2)
HMSSSTFVGRVAVITIGEARQNSPAEARFKDRHGTTHYVMVEPMEDVVFKQGDKVLLVESAGATFKVIEPA	-0.585
HMEYNLTLEELNRDLYIRGEIWNVGDVVKTTDGDEGTIIRKGTNYVVFEDLRRVWLHNLEEVK	-1.85
HMTPAIEKTAVIVFINGKKYYVHTVKSGETLYSIAKAYKVDEKVIKEHNPNVADGLRIDQTVKIPVPEQVK	0.144
HMSVTMPNLVGLDEQTAVTRINSSNLSYGSTNYVHSDHEAGVVFKQSTPAYTEVDEHTKIYIWVSLGPEE	-0.0912
HMNFTKHPENPNFVVYRFTDPERANSFRAELIANNISFEEDTEKKKQLIYTLFAIHTKYYNQSMQINIK	-0.463
HMGSAKAQLYDLMNAHQVTRNQIQDIVAEKGYFPAGTPIENYPDDFVKGVLVGAWDQVHKAILDKEI	0.0946
HMENTELIELRKKRNLSQSQLAELLDLTRNQIANYESGRRIPDQETKQIIAGFFEMPAEEIFAG	0.0435
HMTTLLNHLKGTRLEAGLSQQALARLAGISRQAYSALESGSSNPSTEVALRLARALKTSVDHLFSLPE	-0.989
HMASLSEREHDVAVLILQGKTYAEIGQAIFISPRTVEHHVASIRRRLEAKSRSDLIAKLRLTIGGTED	-2.18
HMSQDLVVLGDSMLNNALKAFHIDPNAIKKKYWDKLILDYHLKSKEEVLTEIALGKKINVMVAHQLTSIMD	-0.0721
HMETEQVEMIRVVGMHVDEAKKALLDLGLSPEIKYEESSSYDAGTVLRASVQDGLMIDKGTNIVLTVAEA	0.121
HMKEDFPLLEQLRYTGEGADVTGTAEKMESIQALRSAADSGGFRATLGDIQQIPGGGLRFTLSLRGSR	0.0335
HMQSLDGPSRAAIVLMAIGPDVAGELIKSFSPAEAQKVSSLLATVRSLDREVMIEVLDSFKNITEH	-0.323
HMTDAELDLLTPREQEVLQLIARGYLYKEIARRLGISVKTVEAHASSVLRKLQLSTRHELSHWAAQRH	-0.258
HMDSKKNLLGKNGLAFTTLRPAGTVLIDGQRHDVISNGDMIPKGATVRVIAIEGASITVEALPD	0.155
HMIVIMAKESSPAELEGVKNRIESHPGLRPQVFDGVERIVVGVLGSIPPDLKDEIELLPGVIEVVPISK	-0.0582
HMKTKKYKGVYKDSKGKIYFQIELGVDPITGKRIQKKGRKNQQGLPFNSFKEAYEEILRLKHEFVNSTIN	-2.69
HMSMVGNIEKILVTGESKKSSELLAGRTENNRVVNFTGEKVLIGSMVNVRIEEVFPNSLGGSYLPS	-0.16
HMEAQFIDINDVRIGTYVYVDLGWIKHPFALNSFKITSRDQIDTLIKLGVKRIRWSPEKSDS	-1.3
HMPVGVPGVVYNTDSLNVRKGAGTNYDIVSKLKRGSVIEVLEQTAVDGTVWGRIAEGWVNMEYVSL	-0.43
HMQISDTSELEAVVQDILKANMDVVAKIKAGKTNSANFLMGQVMKLTKGRAKPDTVLQLILDAVKQ	-0.301
HMQHRSRALHLQEELVRRYYDQAIAPFMIFWEMKANVTLDQLKELRAVVSPSLNEHPYTKQLDEYIRLAE	-0.505
HMDTKLFNYGVGKHAYISWNEGGKRTAYIGFGNDGADVLTINNVKQGGSLGIYKDKITLNSQTVLTD	-0.0296
HMGGEIGSGKNGYVAFYKGKKVDVKADSMYGAQKTAAKYFNAKKEYDVNVVLAEVDGKQYVQS	0.343
HMAAPVGLTQRQMEVAALVADGLTNAEIGRRLHITERSAESHLERVRIRLGFRSRAQVAAWFVTQE	-3.5
HMVGLTDLQRNVLVQIARGKSRQLISRTLKVTPAEISAALKVAQRRYRVASSTEVIVQALYDKTLSFHEIM	-0.625
HMDITKPKISFEPGEMVRVVDGPFNDFSGVVEEVNYEKSKVRVAVLIFGRSTPVELQFNQIEK	-0.252
